From publication PMC7801428 (2021)

Target: SARS-CoV-2 RBD (residues V320 to G550, strain Wuhan-Hu-1), C-terminal His tag (SARS-CoV-2, UniProt P0DTC2 320-550)
Test: BLI

B1: human-mouse chimeric antibody 3C1 (c3C1) (antibody, V domains shown)
VH: EVQLQESGPSLVKPSQTLSLTCSVTGDSITNGYWNWIRKFPGNKLEYMGYISYSGSTYYSPSLKSRISITRDTSKNQHYLQLNSVTSEDTATYYCASDYHGSKYYFDYWGQGTTLTVSS
VL: DIVMTQSHKFMSTSVGHRVSITCKASQDVGNDVAWYQQKPGQSPKLLIYWASTRHTGVPDRFTGSGSGTDFTLTISNVQSEDLADYFCQQYNRYPYTFGGGTKLEIK
koff: < 1e-07 s⁻¹
